This note sets out measurements from paper PMC2944003.

This assay deals with human complement receptor 3 (CR3) on CR3-transfected CHO cells (CHO/CR3) (human), P11215. Put plainly: flow cytometry on cells. As to conditions: remark: other sources report otherwise. In general terms: A flow cytometer gives signals particle by particle.

B1: Factor H (fH), purified human, P08603 19-1231 (natural protein)
chain: EDCNELPPRRNTEILTGSWSDQTYPEGTQAIYKCRPGYRSLGNVIMVCRKGEWVALNPLRKCQKRPCGHPGDTPFGTFTLTGGNVFEYGVKAVYTCNEGYQLLGEINYRECDTDGWTNDIPICEVVKCLPVTAPENGKIVSSAMEPDREYHFGQAVRFVCNSGYKIEGDEEMHCSDDGFWSKEKPKCVEISCKSPDVINGSPISQKIIYKENERFQYKCNMGYEYSERGDAVCTESGWRPLPSCEEKSCDNPYIPNGDYSPLRIKHRTGDEITYQCRNGFYPATRGNTAKCTSTGWIPAPRCTLKPCDYPDIKHGGLYHENMRRPYFPVAVGKYYSYYCDEHFETPSGSYWDHIHCTQDGWSPAVPCLRKCYFPYLENGYNQNYGRKFVQGKSIDVACHPGYALPKAQTTVTCMENGWSPTPRCIRVKTCSKSSIDIENGFISESQYTYALKEKAKYQCKLGYVTADGETSGSITCGKDGWSAQPTCIKSCDIPVFMNARTKNDFTWFKLNDTLDYECHDGYESNTGSTTGSIVCGYNGWSDLPICYERECELPKIDVHLVPDRKKDQYKVGEVLKFSCKPGFTIVGPNSVQCYHFGLSPDLPICKEQVQSCGPPPELLNGNVKEKTKEEYGHSEVVEYYCNPRFLMKGPNKIQCVDGEWTTLPVCIVEESTCGDIPELEHGWAQLSSPPYYYGDSVEFNCSESFTMIGHRSITCIHGVWTQLPQCVAIDKLKKCKSSNLIILEEHLKNKKEFDHNSNIRYRCRGKEGWIHTVCINGRWDPEVNCSMAQIQLCPPPPQIPNSHNMTTTLNYRDGEKVSVLCQENYLIQEGEEITCKDGRWQSIPLCVEKIPCSQPPQIEHGTINSSRSSQESYAHGTKLSYTCEGGFRISEENETTCYMGKWSSPPQCEGLPCKSPPEISHGVVAHMSDSYQYGEEVTYKCFEGFGIDGPAIAKCLGEKWSHPPSCIKTDCLSLPSFENAIPMGEKKDVYKAGEQVTYTCATYYKMDGASNVTCINSRWTGRPTCRDTSCVNPPTVQNAYIVSRQMSKYPSGERVRYQCRSPYEMFGDEEVMCLNGNWTEPPQCKDSTGKCGPPPPIDNGDITSFPLSVYAPASSVEYQCQNLYQLEGNKRITCRNGQWSEPPKCLHPCVISREIMENYNIALRWTAKQKLYSRTGESVEFVCKRGYRLSSRSHTLRTTCWDGKLEYPTCAKR
B1 returned a fold increase in binding to CHO/CR3 cells compared to CHO/NEO cells of 4 fold.
